Target: Fusion protein of Nipah virus (F-clamp) (Nipah virus)
Experiment: SEC

Q: Fusion protein of Nipah virus (F-clamp) was tested. Which stoichiometry N did it give?
A: 3

Reference: paper doi:10.1101/2022.01.11.475947
